Data taken from publication PMC8050300, “The role of S-nitrosylation of PFKM in regulation of glycolysis in ovarian cancer cells” (Cell Death & Disease, 2021).
Values joined by “and” are separate entries in the source; they are usually repeats but may differ in a detail not shown here. Equal entries are not always repeated.

B1: Phosphofructokinase (PFKM), endogenous (enzyme, human (endogenous in SKOV3 and OVCAR3), UniProt P08237-1 1-780, looked up)
chain: MTHEEHHAAKTLGIGKAIAVLTSGGDAQGMNAAVRAVVRVGIFTGARVFFVHEGYQGLVDGGDHIKEATWESVSMMLQLGGTVIGSARCKDFREREGRLRAAYNLVKRGITNLCVIGGDGSLTGADTFRSEWSDLLSDLQKAGKITDEEATKSSYLNIVGLVGSIDNDFCGTDMTIGTDSALHRIMEIVDAITTTAQSHQRTFVLEVMGRHCGYLALVTSLSCGADWVFIPECPPDDDWEEHLCRRLSETRTRGSRLNIIIVAEGAIDKNGKPITSEDIKNLVVKRLGYDTRVTVLGHVQRGGTPSAFDRILGSRMGVEAVMALLEGTPDTPACVVSLSGNQAVRLPLMECVQVTKDVTKAMDEKKFDEALKLRGRSFMNNWEVYKLLAHVRPPVSKSGSHTVAVMNVGAPAAGMNAAVRSTVRIGLIQGNRVLVVHDGFEGLAKGQIEEAGWSYVGGWTGQGGSKLGTKRTLPKKSFEQISANITKFNIQGLVIIGGFEAYTGGLELMEGRKQFDELCIPFVVIPATVSNNVPGSDFSVGADTALNTICTTCDRIKQSAAGTKRRVFIIETMGGYCGYLATMAGLAAGADAAYIFEEPFTIRDLQANVEHLVQKMKTTVKRGLVLRNEKCNENYTTDFIFNLYSEEGKGIFDSRKNVLGHMQQGGSPTPFDRNFATKMGAKAMNWMSGKIKESYRNGRIFANTPDSGCVLGMRKRALVFQPVAELKDQTDFEHRIPKEQWWLKLRPILKILAKYEIDLDTSDHAHLEHITRKRSGEAAV
notes: PFKM, muscle isoform of phosphofructokinase 1, human, endogenous in ovarian cancer cells; also called PFK1 (M isoform); source: endogenous, SKOV3 (control, OE-NOS1) and OVCAR3 cell lysate
B2: Flag-tagged WT human PFK1 (M isoform) (enzyme, UniProt P08237-1 1-780, looked up)
chain: B1 chain
notes: human PFK1 (M isoform, PFKM) cDNA (ATCC, NCBI NP_000280.1) in the expression vector PCDNA3.1; the vector section is headed 'for ovarian cancer cells expression'; also called Flag-PFKM; Flag-PFKM-WT; source: SKOV3-PFKM-KO cells, transfected, in lysate

Target: the molecule itself
Assay: non-reducing SDS-PAGE with western blot; cell extracts separated by non-reducing SDS-PAGE, blot for PFKM tetramer, dimer and monomer; SKOV3 control and OE-NOS1 cells, SKOV3 and OVCAR3 cells with GSNO (1 mM, 30 min) or PBS, SKOV3-PFKM-KO cells (with or without OE-NOS1) reconstituted with Flag-PFKM-WT or C351S

| Protein | stoichiometry N |
| --- | --- |
| B1 | 4 and 2 |
| B2 | 4 and 2 |
